Assays:
Eotaxin 2 (CCL24), human [1] = target: T1, Eotaxin 2 (CCL24), human (human, UniProt O00175 27-119); test: cell-based or functional assay
T1 sequence: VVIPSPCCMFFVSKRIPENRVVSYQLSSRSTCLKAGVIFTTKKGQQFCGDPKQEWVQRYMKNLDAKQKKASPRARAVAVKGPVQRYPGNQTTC

Eotaxin 1 (CCL11), human = Eotaxin 1 (CCL11), human (human, UniProt P51671 24-97); test: cell-based or functional assay
RANTES (CCL5), human = target: T2, RANTES (CCL5), human (human, UniProt P13501 24-91); test: cell-based or functional assay
T2 sequence: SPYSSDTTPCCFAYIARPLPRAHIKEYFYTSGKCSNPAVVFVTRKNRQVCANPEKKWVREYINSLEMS

Eotaxin 2 (CCL24), human [2] = target: T1, Eotaxin 2 (CCL24), human; test: Biacore SPR (eotaxin 2 immobilised on CM-5 chip) and ELISA
Experimental: The affinity constant of hCM101 or murine CM101 was evaluated using Biacore T100. This method uses Surface Plasmon Resonance (SPR) electrooptical phenomenon to measure the binding constants and on/off rates between binding partners. Eotaxin 2 was covalently immobilized on a surface of a CM-5 chip, and a solution of CM101 was passed over the surface. The changes in SPR angle were measured and enabled to determine the KD.

Chain of Eotaxin 1 (CCL11), human (P51671 24-97): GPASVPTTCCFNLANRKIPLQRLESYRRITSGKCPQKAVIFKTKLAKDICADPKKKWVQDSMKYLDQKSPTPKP

B1: hCM101 (fully humanized anti-eotaxin-2 monoclonal antibody, humanized variant VH1/VK3) (antibody, human IgG1, V domains shown)
VH: QIQLVQSGPELKKPGASVKVSCRASGYPFTNSGMNWVKQAPGKGLKWMGWINTYNGEPTYTDDFKGRFAFSLETSASTAYLQINNLRNEDTATYFCASHSYGSSYAMDNWGQGTSVTVSS
VL: DIVLTQSPDSLAVSLGERATINCKASQSVDYDGDSYMNWYQQKPGQPPKLLIYVASNLKSGIPARFSGSGSGTDFTLTISSLQPEDFATYYCQQSNEEPWTFGGGTKVEIK
notes: also called VH1/K3; fully humanized CM101
B1 was tested, and the “migration of CD14 negative cells towards Eotaxin 1, 2 and Rantes, % reduction at the high dose” value (“migration … % reduction at the high dose” below) (Eotaxin 2 (CCL24), human [1]) was ~90%, the “migration … % reduction at the high dose” value (Eotaxin 1 (CCL11), human) was ~90% and the “migration … % reduction at the high dose” value (RANTES (CCL5), human) was ~90%. It also gave a Kd (Eotaxin 2 (CCL24), human [2]) of 3 nM.

Reference: patent US20160368979A1 (CHEMOMAB, published 2016)
